Reference: patent US20250011869A1, “TLR3 INHIBITORS FOR USE IN THE TREATMENT OF DISEASES ASSOCIATED WITH CARDIOVASCULAR CALCIFICATION” (priority 2021, published 2025)
Entries after “also recorded” stand apart in the source; their conditions may differ.

Columns and labels:
[1] = target: T1, human TLR3 ectodomain (huTLR3-ECD) (Homo sapiens, UniProt O15455); test: In vitro binding by size exclusion chromatography and immunoblot; settings: chondroitinase ABC digested BGN incubated with TLR3 ECD
T1 construct: The human TLR3-ECD (27-700) was modified with an N-terminal gb67 leader and a C-terminal 6× poly histidine tag; gb67 (gp67) secretion leader (N); 6xHis (C); made in house; host or cells: Sf21 insect cells (baculovirus, pFastBac1, Bac-to-Bac)

TLR3-RUNX2 pathway = test: Immunoblot of human dermal fibroblasts for the TLR3-RUNX2 pathway; type: cell-based; settings: wild type and empty vector control cells; 5 μg/ml, 6 h
Text: (§1) Human dermal fibroblasts WT and Tlr3^−/− were kindly provided by the Jean-Laurent Casanova group and cultivated in DMEM with 4.5 g/L glucose (Lonza, Basel, Switzerland), 10% FCS (Sigma, St. Louis, MO), penicillin, streptomycin and L-Glutamine. Human dermal fibroblasts CTR cells were provided by the Villunger group and cultivated in DMEM with 4.5 g/L glucose (Lonza, Basel, Switzerland), 10% FCS (Sigma, St. Louis, MO), penicillin, streptomycin and L-Glutamine.
(§2) All cells were cultivated under standard conditions (37° C., supplied with 5% CO2). Passaging of the cells was performed at 70-90% confluency, and cells were only used until passage 7 as described previously^6. Polyinosinic: polycytidylic acid (Poly(I:C); Invivogen, San Diego, CA) was used to stimulate cells at a concentration of either 20 μg/mL or 5 μg/ml, depending on the assay. For blockade of TLR3, the commercially available dsRNA/TLR3 inhibitor ((R)-2-(3-Chloro-6-fluorobenzo [b] thiophene-2-carboxamido)-3-phenyl-propanoic acid) was used (Merck, Darmstadt, Germany) at a concentration of 1 μg/ml as described previously^1,7. LY294002 (Invivogen, San Diego, CA), a PI3K inhibitor, was used at a concentration of 10 μM. For blockade of IFNAR1, a specific blocking antibody (Invitrogen, Carlsbad, CA) was used at a concentration of 4 μg/ml. A stable HEK (human embryonic kidney) reporter cell line (TLR3/ISRE LUCPorter; Imgenex, USA) was purchased for luminometer assay experiments. Cells were cultivated according to the manufacturer's protocol in DMEM with 4.5 g/L glucose (Lonza, Switzerland), 10% FCS (Sigma, St. Louis, MO), penicillin/streptomycin, and 4 mM L-glutamine and […] puromycin (Gibco, USA) as selection agent. Reporter experiments were performed as described previously^8. For the protein expression SF21 cells were purchased at ThermoFisher (#11497013) and cultivated in Gibco™ Sf-900™ SFM supplemented with penicillin, streptomycin and L-Glutamine. In vitro stretch was applied using a Flexcell bioreactor (Flexcell International Corporation, Burlington, NC) applying 15% cyclic strain as described previously^9.
Protein from tissue or cell lysates was extracted using a Radioimmunoprecipitation Assay Lysis Puffer (150 mM NaCl, 1% NP-40, 0.5% Sodium Deoxycholate, 0.1% SDS and 50 mM Tris (pH 8,0)). For the extraction of nuclear or cytosolic proteins the NE-PER™ Nuclear and Cytoplasmic Extraction Reagents Kit (ThermoScientific, #78835) was used.
Protein was thereafter separated on SDS-polyacrylamide gels of different percentages and transferred to nitrocellulose membranes as described previously^18. After blocking with either 5% BSA in TBS 0.1% Tween, 5% milk in TBS 0.1% Tween or StartingBlock™ (TBS) Blocking buffer (ThermoScientific, #37542) membranes were incubated with primary antibodies listed in Table 2.

TLR3 [2] = target: TLR3 (Homo sapiens, UniProt O15455); test: HEK293 hTLR3 reporter cell assay (TLR3/ISRE LUCPorter, luminometer); type: cell-based; settings: putative ligands at increasing concentrations, 24 h (biglycan 5, 10, 20 μg/ml)
Experimental: as §2, with “For the protein expression SF21 cells were purchased at ThermoFisher (#11497013) and cultivated in Gibco™ Sf-900™ SFM supplemented with penicillin, streptomycin and L-Glutamine. In vitro stretch was applied using a Flexcell bioreactor (Flexcell International Corporation, Burlington, NC) applying 15% cyclic strain as described previously^9.” left out

TLR3 and IFN-β = test: RT-PCR of human dermal fibroblasts (wild type, empty vector control, Tlr3−/− CRISPR); type: cell-based; settings: 5 μg/ml, 6 h
Text: as §1, §2
RT-PCR was performed as described previously^17. Total RNA was extracted from homogenized tissue or cell lysates using the Total RNA Miniprep Kit (New England BioLabs, Frankfurt, Germany) according to the manufacturer's instructions. We performed the PCR reaction in a final volume of 12.5 μL containing 2.5 μL of cDNA, 6.25 μL of Master Mix, 1 μL of fluorogenic hybridization probe, 10 μM of primer and 2.75 μL of distilled water. […] The result for the relative gene expression was calculated by the 2-DDCt method. Mean Ct values were calculated from double determinations and samples were considered negative if the Ct values exceeded 4017. […]

TLR3 [3] = test: TLR3 expression in valvular interstitial cells (immunoblot / RT-qPCR); type: cell-based, human; settings: immunoblot; 20 μg/ml, 24 h or 48 h (FIG. 7A)
Experimental: Valvular interstitial cells from patients undergoing aortic valve replacement or cardiac transplantation were isolated via collagen digestion as described previously^6. Valves were rinsed in EBSS and subsequently subjected to collagenase digestion (Sigma, St. Louis, MO; 2.5 mg/mL in M199) for 30 minutes at 37° C. Thereafter, tissue samples were vortexed and supernatant containing endothelial cells was removed. Again, collagenase was added to the remaining valve tissue (1 mg/mL) for 3 h at 37° C. For mechanical disintegration of the tissue, vortexing and repeated aspiration via a pipette was performed. The supernatant was transferred into a new tube and subjected to centrifugation (300 g for 8 minutes at 4° C.). Subsequently, cells were resuspended in M199 medium containing 10% fetal calve serum, penicillin, streptomycin, L-Glutamine and amphotericin B (2.5 mg/L).
All cells were cultivated under standard conditions (37° C., supplied with 5% CO2). Passaging of the cells was performed at 70-90% confluency, and cells were only used until passage 7 as described previously^6. […]
RT-PCR was performed as described previously^17. […] The result for the relative gene expression was calculated by the 2-DDCt method. Mean Ct values were calculated from double determinations and samples were considered negative if the Ct values exceeded 4017. […]

binding to huTLR3-ECD by size-exclusion chromatography followed by immunoblotting [1]: co-elution
binding to huTLR3-ECD by size-exclusion chromatography followed by immunoblotting ([1]; listed as huBGN): weak binding interaction
B1: BGN: proteoglycan biglycan (BGN), a structural protein of the extracellular matrix (ECM) (protein)
chain: DEEASGAETTSGIPDLDSLPPTYSAMCPFGCHCHLRVVQCSDLGLKAVPKEISPDTTLLDLQNNDISELRKDDFKGLQHLYALVLVNNKISKIHEKAFSPLRKLQKLYISKNHLVEIPPNLPSSLVELRIHDNRIRKVPKGVFSGLRNMNCIEMGGNPLENSGFEPGAFDGLKLNYLRISEAKLTGIPKDLPETLNELHLDHNKIQAIELEDLLRYSKLYRLGLGHNQIRMIENGSLSFLPTLRELHLDNNKLSRVPAGLPDLKLLQVVYLHTNNITKVGVNDFCPVGFGVKRAYYNGISLFNNPVPYWEVQPATFRCVTDRLAIQFGNYKK
IFNAR1 level (TLR3-RUNX2 pathway): upregulation of IFNAR1
levels of osteoblastic transcription factor RUNX2 (TLR3-RUNX2 pathway): increased levels
phosphorylation of IRF3 (TLR3-RUNX2 pathway): phosphorylation of IRF3
activation of TLR3 reporter cells (TLR3 [2]): activated TLR3 reporter cells in a dose-dependent fashion
transcription of TLR3 and IFN-β (TLR3 and IFN-β; Tlr3−/− fibroblasts): no response
transcription of TLR3 and IFN-β (TLR3 and IFN-β; wild type and empty vector control fibroblasts): induced transcription of TLR3 and IFN-β
TLR3 expression in VICs (TLR3 [3]): induces TLR3 expression in a dose-dependent manner; also recorded: induced TLR3 expression in VICs
